What all share (assay): pull-down
In assay [1] the target is T1, DHX29 (FL), His-tagged (UniProt Q7Z478 1-1369).
T1 sequence (looked up): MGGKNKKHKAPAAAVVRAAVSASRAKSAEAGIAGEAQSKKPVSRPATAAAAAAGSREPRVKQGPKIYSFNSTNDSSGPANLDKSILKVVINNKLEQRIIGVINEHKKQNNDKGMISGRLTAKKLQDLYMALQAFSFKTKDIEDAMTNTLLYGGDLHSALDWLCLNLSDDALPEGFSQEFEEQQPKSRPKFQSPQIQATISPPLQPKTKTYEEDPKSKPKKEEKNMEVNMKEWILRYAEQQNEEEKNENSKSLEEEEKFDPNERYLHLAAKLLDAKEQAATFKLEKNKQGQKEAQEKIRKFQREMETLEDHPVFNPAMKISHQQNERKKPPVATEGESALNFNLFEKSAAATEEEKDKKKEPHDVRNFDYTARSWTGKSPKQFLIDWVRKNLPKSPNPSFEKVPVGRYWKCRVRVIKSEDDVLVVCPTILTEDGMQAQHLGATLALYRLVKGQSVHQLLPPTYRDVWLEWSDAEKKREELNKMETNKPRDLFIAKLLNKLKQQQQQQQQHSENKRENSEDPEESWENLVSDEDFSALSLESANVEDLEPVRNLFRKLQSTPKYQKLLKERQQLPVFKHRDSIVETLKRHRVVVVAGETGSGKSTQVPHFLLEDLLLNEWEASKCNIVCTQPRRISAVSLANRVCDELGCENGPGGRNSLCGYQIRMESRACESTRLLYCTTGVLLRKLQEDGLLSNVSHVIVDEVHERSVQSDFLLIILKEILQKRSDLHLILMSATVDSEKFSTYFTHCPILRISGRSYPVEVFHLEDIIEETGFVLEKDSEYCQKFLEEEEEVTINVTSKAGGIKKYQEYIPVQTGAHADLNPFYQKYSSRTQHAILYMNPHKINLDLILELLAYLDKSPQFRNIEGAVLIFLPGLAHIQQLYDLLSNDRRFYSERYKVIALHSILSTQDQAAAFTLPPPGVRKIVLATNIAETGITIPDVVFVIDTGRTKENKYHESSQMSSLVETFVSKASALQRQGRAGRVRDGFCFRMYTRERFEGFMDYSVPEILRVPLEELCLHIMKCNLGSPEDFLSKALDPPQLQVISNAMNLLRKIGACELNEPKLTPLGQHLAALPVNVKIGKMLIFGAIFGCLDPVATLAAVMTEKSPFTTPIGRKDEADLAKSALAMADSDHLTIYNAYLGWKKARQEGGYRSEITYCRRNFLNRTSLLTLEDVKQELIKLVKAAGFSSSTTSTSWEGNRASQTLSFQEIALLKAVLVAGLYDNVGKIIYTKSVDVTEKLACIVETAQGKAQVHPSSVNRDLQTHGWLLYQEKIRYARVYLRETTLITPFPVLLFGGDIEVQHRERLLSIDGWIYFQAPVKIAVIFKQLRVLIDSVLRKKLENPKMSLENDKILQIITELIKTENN

Assay [2] addresses GST-eIF3a (783–1382) (human, UniProt Q14152 783-1382).
Assay [3] has as its target T2, GST-DHX29 (248–594) (UniProt Q7Z478 248-594).
T2 sequence (looked up): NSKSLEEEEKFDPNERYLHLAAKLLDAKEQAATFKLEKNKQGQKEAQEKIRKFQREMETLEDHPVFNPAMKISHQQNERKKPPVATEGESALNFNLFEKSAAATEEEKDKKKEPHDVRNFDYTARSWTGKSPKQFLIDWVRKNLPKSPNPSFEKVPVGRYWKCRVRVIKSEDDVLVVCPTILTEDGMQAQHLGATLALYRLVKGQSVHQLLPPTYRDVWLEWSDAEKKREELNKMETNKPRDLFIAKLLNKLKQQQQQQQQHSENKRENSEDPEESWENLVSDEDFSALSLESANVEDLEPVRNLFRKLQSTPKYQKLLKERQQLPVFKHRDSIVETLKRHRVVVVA

Results on three molecules are retold here after PMC5113206 (RNA, 2016).

GST-eIF3a (783–1382), sequence (Q14152 783-1382): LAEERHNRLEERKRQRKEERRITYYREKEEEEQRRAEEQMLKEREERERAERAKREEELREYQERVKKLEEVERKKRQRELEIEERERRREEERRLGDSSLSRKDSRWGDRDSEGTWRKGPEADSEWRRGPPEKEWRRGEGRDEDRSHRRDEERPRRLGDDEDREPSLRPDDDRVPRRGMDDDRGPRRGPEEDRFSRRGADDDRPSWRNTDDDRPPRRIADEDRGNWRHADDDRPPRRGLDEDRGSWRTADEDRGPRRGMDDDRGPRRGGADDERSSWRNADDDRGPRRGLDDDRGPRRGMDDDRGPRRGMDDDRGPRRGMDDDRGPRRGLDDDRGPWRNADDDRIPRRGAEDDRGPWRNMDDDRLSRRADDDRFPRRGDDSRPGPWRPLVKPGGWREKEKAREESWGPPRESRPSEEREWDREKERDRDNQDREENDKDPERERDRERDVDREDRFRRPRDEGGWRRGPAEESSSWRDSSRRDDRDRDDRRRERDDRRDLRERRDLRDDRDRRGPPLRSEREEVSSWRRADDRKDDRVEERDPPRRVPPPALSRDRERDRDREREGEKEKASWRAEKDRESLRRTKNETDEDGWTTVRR

B1: GST-eIF3b (161–264) (domain or fragment, murine, UniProt Q8JZQ9 161-264, looked up)
chain: VLKDRPQEADGIDSVIVVDNVPQVGPDRLEKLKNVIHKIFSKFGKIINDYYPEEDGKTKGYIFLEYASPAHAVDAVKNADGYKLDKQHTFRVNLFTDFDKYMTI
Turning to B1, the binding result in assay [1] was “binds”.

B2: DHX29 (1–247), His-tagged (domain or fragment, UniProt Q7Z478 1-247, looked up)
chain: MGGKNKKHKAPAAAVVRAAVSASRAKSAEAGIAGEAQSKKPVSRPATAAAAAAGSREPRVKQGPKIYSFNSTNDSSGPANLDKSILKVVINNKLEQRIIGVINEHKKQNNDKGMISGRLTAKKLQDLYMALQAFSFKTKDIEDAMTNTLLYGGDLHSALDWLCLNLSDDALPEGFSQEFEEQQPKSRPKFQSPQIQATISPPLQPKTKTYEEDPKSKPKKEEKNMEVNMKEWILRYAEQQNEEEKNE
Regarding B2, the binding result in assay [2] is “binds”.

B3: eIF3b (1–300), His-tagged (domain or fragment, murine, UniProt Q8JZQ9 1-300, looked up)
chain: MQDAENVAVPEAAEERAEPARQQPASESPPTDEAAGSGGSEVGQTEDAEEDAEAGPEPEVRAKPAAQSEEETATSPAASPTPQSAERSPSQEPSAPGKAEAVGEQARGHPSAGAEEEGGSDGSAAEAEPRALENGEADEPSFSDPEDFVDDVSEEELLGDVLKDRPQEADGIDSVIVVDNVPQVGPDRLEKLKNVIHKIFSKFGKIINDYYPEEDGKTKGYIFLEYASPAHAVDAVKNADGYKLDKQHTFRVNLFTDFDKYMTISDEWDIPEKQPFKDLGNLRYWLEEAECRDQYSVIFE
On to B3, for which the binding result in assay [3] is reported as “binds”.
